B1: mCherry-VHH Mut12 (VHH, not shown: large carriers)
VHH: AEVQLQASGGVFVQSGGSLRLCCAASGATSTFDGMGWFRQAPGKEREFVSAISYEQGSYTYYADSVKGRFTISRDNSKNMVYLQMNSLRAEDTATYYCAPAYEGDLYAFDSYGEQGTQVTVSS
B2: mCherry-VHH E4-1 (VHH, not shown: large carriers)
VHH: EVQLQASGGGFVQPGGSLRLSCAASGATSTFDGMGWFRQAPGKEREFVSAISYEQGSYTYYADSVKGRFTISRDNSKNTVYLQMNSLRAEDTATYYCAPAYEGDLYAFDSYWGQGTQVTVSS
B3: mCherry-VHH Mut14 (VHH, not shown: large carriers)
VHH: EVQLQASGGVFVQSGGSLRLSCAASGATSIFDGMGWFRQAPGKEREFVSAISYGQGSYTYYADSVKGRFTISRDNSKNMVYLQMNSLRAEDTATYYCAPAYEGDLYAFDSYGEQGTQVTVSS
B4: mCherry-VHH Mut3 (VHH, not shown: large carriers)
VHH: EVQLQASGGVFVQSGGSLRLSCAASGATSTFDGMGWFRQAPGKEKEFVSAISYEQGSYTYYADSVKGRFTISRDNSKNMVYLQMNSLRAEDTATYYCAPAYEGDLYAFDSYGGQGTQVTVSS
B5: mCherry-VHH Mut20 (VHH, not shown: large carriers)
VHH: EVQLQASGGVFVQSGGSLRLSCAASGATSTFDGMGWFRQAPGKEKEFVSAISYEQGSYTYYADSVKGRFTISRDNSKNMVYLQMNSLRAEDTATYYCAPAYEGDLYAFDSYGEQGTQVTVSS
B6: mCherry-VHH Mut5 (VHH, not shown: large carriers)
VHH: EVQLQASGGVFVQSGGSLRLSCAASGATSTFDGMGWFRQAPGKEREFVSAISYEQGSYTYYADSVKGRFTISRDNSKNMVYLQMNSLRAEDTASYYCAPAYEGDLYAFDSYGGQGTQVTVSS
B7: mCherry-VHH Mut1 (VHH, not shown: large carriers)
VHH: EVQLQASGGVFVQSGGSLRLSCAASGATSTFDGMGWFRQAPGKEREFVSAISYEQGSYTYYADSVKGRFTISRDNSKNMVYLQMNSLRAEDTATYYCAPAYEGDLYAFDSYGEQGTQVTVSS
B8: mCherry-VHH Z70 (VHH, not shown: large carriers)
VHH: EVQLQASGGVFVQSGGSLRLSCAASGATSTFDGMGWFRQAPGKEREFVSAISYEQGSYTYYADSVKGRFTISRDNSKNMVYLQMNSLRAEDTATYYCAPAYEGDLYAFDSYGGQGTQVTVSS

The binders below were run against Tau RD (MTBD) P301S fused to CFP or YFP, in HEK293 Tau RD P301S FRET Biosensor cells (UniProt P10636) (assay: cell-based or functional assay).
Sequence of Tau RD (MTBD) P301S fused to CFP or YFP, in HEK293 Tau RD P301S FRET Biosensor cells (P10636 561-689 P618S): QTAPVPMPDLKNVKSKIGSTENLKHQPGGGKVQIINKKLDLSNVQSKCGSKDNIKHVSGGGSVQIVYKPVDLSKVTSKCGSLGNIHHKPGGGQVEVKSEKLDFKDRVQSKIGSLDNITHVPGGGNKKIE

Binder	mCherry-gated FRET positive cells after MTBD seeds [%]	seeding inhibition [%]	seeding inhibition against mCherry-VHH F8-2 [%]
B1	8.5	48	
B2	15.2		7.8
B3	12.7	23	
B4	8.2	50	
B5	11.2	32	
B6	12.1	27	
B7	8.2	50	
B8	9.9		40
